From article PMC7666136 come the findings set out here.

Assay [1] concerns the target T1, eGFP-53BP1 (wild-type TP53-binding protein 1 tagged with enhanced green fluorescent protein), Q12888.
T1 chain: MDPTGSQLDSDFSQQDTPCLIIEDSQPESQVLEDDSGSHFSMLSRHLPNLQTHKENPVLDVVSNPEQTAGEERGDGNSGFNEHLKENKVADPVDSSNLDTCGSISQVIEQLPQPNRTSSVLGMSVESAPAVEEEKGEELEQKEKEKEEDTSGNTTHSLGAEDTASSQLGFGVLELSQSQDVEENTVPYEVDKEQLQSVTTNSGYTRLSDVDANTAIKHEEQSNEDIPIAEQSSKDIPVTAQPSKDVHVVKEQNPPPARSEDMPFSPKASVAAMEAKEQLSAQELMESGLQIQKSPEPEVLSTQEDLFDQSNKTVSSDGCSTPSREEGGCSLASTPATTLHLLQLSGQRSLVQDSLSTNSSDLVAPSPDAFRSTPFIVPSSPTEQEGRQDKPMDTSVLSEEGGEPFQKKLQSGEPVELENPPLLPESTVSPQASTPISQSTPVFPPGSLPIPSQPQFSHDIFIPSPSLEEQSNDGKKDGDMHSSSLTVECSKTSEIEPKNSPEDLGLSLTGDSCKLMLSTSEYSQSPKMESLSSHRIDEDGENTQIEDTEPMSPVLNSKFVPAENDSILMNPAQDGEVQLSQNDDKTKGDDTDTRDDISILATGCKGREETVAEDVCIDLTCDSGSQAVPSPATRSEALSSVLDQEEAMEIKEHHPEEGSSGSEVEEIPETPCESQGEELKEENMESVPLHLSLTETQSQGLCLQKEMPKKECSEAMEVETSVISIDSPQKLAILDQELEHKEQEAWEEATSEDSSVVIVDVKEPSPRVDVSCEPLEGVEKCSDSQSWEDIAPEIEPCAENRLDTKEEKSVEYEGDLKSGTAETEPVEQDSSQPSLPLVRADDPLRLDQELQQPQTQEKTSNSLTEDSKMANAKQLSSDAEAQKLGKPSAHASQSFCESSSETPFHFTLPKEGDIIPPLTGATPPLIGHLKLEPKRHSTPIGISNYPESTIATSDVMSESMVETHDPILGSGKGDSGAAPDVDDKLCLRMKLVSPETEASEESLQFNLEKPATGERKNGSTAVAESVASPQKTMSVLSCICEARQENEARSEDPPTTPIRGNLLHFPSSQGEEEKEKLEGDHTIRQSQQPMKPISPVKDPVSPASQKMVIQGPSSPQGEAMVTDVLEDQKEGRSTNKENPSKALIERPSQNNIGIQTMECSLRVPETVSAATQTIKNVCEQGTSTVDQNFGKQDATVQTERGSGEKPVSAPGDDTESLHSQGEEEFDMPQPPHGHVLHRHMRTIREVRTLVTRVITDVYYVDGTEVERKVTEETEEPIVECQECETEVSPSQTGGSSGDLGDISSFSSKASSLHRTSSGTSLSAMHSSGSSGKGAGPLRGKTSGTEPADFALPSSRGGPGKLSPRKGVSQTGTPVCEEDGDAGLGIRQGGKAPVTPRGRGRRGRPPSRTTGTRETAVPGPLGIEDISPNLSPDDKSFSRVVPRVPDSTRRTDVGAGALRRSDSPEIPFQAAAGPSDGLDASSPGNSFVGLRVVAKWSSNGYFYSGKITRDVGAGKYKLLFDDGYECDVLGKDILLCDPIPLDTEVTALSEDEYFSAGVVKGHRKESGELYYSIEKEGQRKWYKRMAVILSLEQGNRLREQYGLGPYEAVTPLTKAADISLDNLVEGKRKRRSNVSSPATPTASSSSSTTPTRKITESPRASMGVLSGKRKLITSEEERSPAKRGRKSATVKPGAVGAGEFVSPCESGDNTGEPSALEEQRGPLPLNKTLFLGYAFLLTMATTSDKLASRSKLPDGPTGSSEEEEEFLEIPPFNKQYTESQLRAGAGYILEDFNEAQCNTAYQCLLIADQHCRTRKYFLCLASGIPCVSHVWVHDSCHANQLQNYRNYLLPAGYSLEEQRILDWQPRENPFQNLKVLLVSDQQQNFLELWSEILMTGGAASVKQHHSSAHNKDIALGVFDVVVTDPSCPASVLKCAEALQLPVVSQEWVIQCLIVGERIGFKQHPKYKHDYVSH
Description: cross-pair correlation function (cross-pCF) analysis, two-colour fluorescence cross-correlation; two-channel line scans in live DIvA cells co-transfected with eGFP- and mKate2-tagged copies of the same 53BP1 construct, treated with 4OHT for 60 min; dimer fraction from cross pCF0 against pCF0, corrected for spectral bleed through. The conditions noted are these: remark: other sources report otherwise.

The target of assay [2] is T1, eGFP-53BP1 (wild-type TP53-binding …). Description: Number and Brightness (NB) analysis of fluorescence fluctuation spectroscopy; frame scans in nuclei of live DIvA cells expressing eGFP-tagged 53BP1 constructs, 37 °C, brightness windows calibrated on free eGFP (B monomer 1.15, dimer 1.30, oligomer >1.60); before and 30-60 min after 4OHT induction of DSBs; also after knockdown of endogenous 53BP1. The following applies: remark: other sources report otherwise.

B1: eGFP-53BP1 (wild-type TP53-binding protein 1 tagged with enhanced green fluorescent protein), Q12888 1-1972 (natural protein)
chain: MDPTGSQLDSDFSQQDTPCLIIEDSQPESQVLEDDSGSHFSMLSRHLPNLQTHKENPVLDVVSNPEQTAGEERGDGNSGFNEHLKENKVADPVDSSNLDTCGSISQVIEQLPQPNRTSSVLGMSVESAPAVEEEKGEELEQKEKEKEEDTSGNTTHSLGAEDTASSQLGFGVLELSQSQDVEENTVPYEVDKEQLQSVTTNSGYTRLSDVDANTAIKHEEQSNEDIPIAEQSSKDIPVTAQPSKDVHVVKEQNPPPARSEDMPFSPKASVAAMEAKEQLSAQELMESGLQIQKSPEPEVLSTQEDLFDQSNKTVSSDGCSTPSREEGGCSLASTPATTLHLLQLSGQRSLVQDSLSTNSSDLVAPSPDAFRSTPFIVPSSPTEQEGRQDKPMDTSVLSEEGGEPFQKKLQSGEPVELENPPLLPESTVSPQASTPISQSTPVFPPGSLPIPSQPQFSHDIFIPSPSLEEQSNDGKKDGDMHSSSLTVECSKTSEIEPKNSPEDLGLSLTGDSCKLMLSTSEYSQSPKMESLSSHRIDEDGENTQIEDTEPMSPVLNSKFVPAENDSILMNPAQDGEVQLSQNDDKTKGDDTDTRDDISILATGCKGREETVAEDVCIDLTCDSGSQAVPSPATRSEALSSVLDQEEAMEIKEHHPEEGSSGSEVEEIPETPCESQGEELKEENMESVPLHLSLTETQSQGLCLQKEMPKKECSEAMEVETSVISIDSPQKLAILDQELEHKEQEAWEEATSEDSSVVIVDVKEPSPRVDVSCEPLEGVEKCSDSQSWEDIAPEIEPCAENRLDTKEEKSVEYEGDLKSGTAETEPVEQDSSQPSLPLVRADDPLRLDQELQQPQTQEKTSNSLTEDSKMANAKQLSSDAEAQKLGKPSAHASQSFCESSSETPFHFTLPKEGDIIPPLTGATPPLIGHLKLEPKRHSTPIGISNYPESTIATSDVMSESMVETHDPILGSGKGDSGAAPDVDDKLCLRMKLVSPETEASEESLQFNLEKPATGERKNGSTAVAESVASPQKTMSVLSCICEARQENEARSEDPPTTPIRGNLLHFPSSQGEEEKEKLEGDHTIRQSQQPMKPISPVKDPVSPASQKMVIQGPSSPQGEAMVTDVLEDQKEGRSTNKENPSKALIERPSQNNIGIQTMECSLRVPETVSAATQTIKNVCEQGTSTVDQNFGKQDATVQTERGSGEKPVSAPGDDTESLHSQGEEEFDMPQPPHGHVLHRHMRTIREVRTLVTRVITDVYYVDGTEVERKVTEETEEPIVECQECETEVSPSQTGGSSGDLGDISSFSSKASSLHRTSSGTSLSAMHSSGSSGKGAGPLRGKTSGTEPADFALPSSRGGPGKLSPRKGVSQTGTPVCEEDGDAGLGIRQGGKAPVTPRGRGRRGRPPSRTTGTRETAVPGPLGIEDISPNLSPDDKSFSRVVPRVPDSTRRTDVGAGALRRSDSPEIPFQAAAGPSDGLDASSPGNSFVGLRVVAKWSSNGYFYSGKITRDVGAGKYKLLFDDGYECDVLGKDILLCDPIPLDTEVTALSEDEYFSAGVVKGHRKESGELYYSIEKEGQRKWYKRMAVILSLEQGNRLREQYGLGPYEAVTPLTKAADISLDNLVEGKRKRRSNVSSPATPTASSSSSTTPTRKITESPRASMGVLSGKRKLITSEEERSPAKRGRKSATVKPGAVGAGEFVSPCESGDNTGEPSALEEQRGPLPLNKTLFLGYAFLLTMATTSDKLASRSKLPDGPTGSSEEEEEFLEIPPFNKQYTESQLRAGAGYILEDFNEAQCNTAYQCLLIADQHCRTRKYFLCLASGIPCVSHVWVHDSCHANQLQNYRNYLLPAGYSLEEQRILDWQPRENPFQNLKVLLVSDQQQNFLELWSEILMTGGAASVKQHHSSAHNKDIALGVFDVVVTDPSCPASVLKCAEALQLPVVSQEWVIQCLIVGERIGFKQHPKYKHDYVSH
Turning to B1, in assay [1], the fraction of 53BP1 dimer (cross pCF0 against pCF0) is 31%. In assay [2], the fraction of dimer (NB, percent of pixels) is 26%; the fraction of oligomer (NB, percent of pixels) was 2%; the stoichiometry N (in general, a count of units in the complex or per binding partner) amounted to 2.
